Residue numbers refer to the chain shown, from its start.
B1: m212A11 (murine 212A11, hybridoma CNCM I-4773) (antibody, V domains shown)
VH: QVQLQQSGPELVKPGASVKMSCKASGYTFTSYYIHWVKQRPGQGLEWIGWIWPGDGSTKYNEKFKGKTTLTADKSSSTAYMFLSSLTSEDSAVYFCASPMITPNYAMDYWGQGASVTVSS
VL: DIQMTQTTSSLSASLGDRVTISCRASQDINKYLNWYQQQPDGTVKLLIYYTSRLHSGVPSRFSGRGSGTDYSLTISNLEQEDIATYFCQQGSTLPYTFGGGTKLEIK
B2: c212A11 (antibody, human IgG1, kappa, V domains shown)
VH: B1 VH
VL: DIQMTQTTSSLSASLGDRVTISCRASQDINKYLNWYQQQPDGTVKLLIYYTSRLHSGVPSRFSGRGSGTDYSLTISNLEQEDIATYFCQQGSTLPYTFGGGTKLEIKR
notes: also called chimeric 212A11
B3: m219D6 (murine 219D6, hybridoma CNCM I-4736) (antibody, V domains shown)
VH: B1 VH with A16D, T28S, Y33F, A72T, S84N
VL: B1 VL with N30S
B4: c219D6 (antibody, human IgG1, kappa, V domains shown)
VH: B1 VH with A16D, T28S, Y33F, A72T, S84N
VL: B2 VL with N30S
notes: also called chimeric 219D6
B5: m214F8 (murine 214F8, hybridoma CNCM I-4775) (antibody, V domains shown)
VH: B1 VH with P9S, M20L, K63R
VL: B1 VL with I21F, N30S, V44I, S76T, T93A
B6: m208F2 (murine 208F2, hybridoma CNCM I-4757) (antibody, V domains shown)
VH: B1 VH with H35Y, I48L, G66D, S77N
VL: B1 VL with N30S, V44I, L78V
B7: c214F8 (antibody, human IgG1, kappa)
heavy: not shown
light: DIQMTQTTSSLSASLGDRVTFSCRASQDISKYLNWYQQQPDGTIKLLIYYTSRLHSGVPSRFSGRGSGTDYSLTITNLEQEDIATYFCQQGSALPYTFGGGTKLEIKRTVAAPSVFIFPPSDEQLKSGTASVVCLLNNFYPREAKVQWKVDNALQSGNSQESVTEQDSKDSTYSLSSTLTLSKADYEKHKVYACEVTHQGLSSPVTKSFNRGEC
notes: also called chimeric 214F8
B8: m213B10 (murine 213B10, hybridoma CNCM I-4774) (antibody, V domains shown)
VH: B1 VH with P9S, K63R
VL: B1 VL with N30S, V44I, S76T, T93A
B9: c213B10 (antibody, human IgG1, kappa)
heavy: not shown
light: B7 light with F21I
notes: also called chimeric 213B10
B10: 816C12 (antibody, V domains shown)
VH: EVQLQQSGPELVKPGASVKMSCKASGHTFTSYVLHWMKRKPGQGLEWIGYINPHNDVTKYNENFKGKATLTSDKYSSTVYMEVSSLTSEDSAVYYCVSTAYYGNGRYFDVWGAGTTVTVSS
VL: B1 VL with K31N, Q39K, P59S, R65S, S92N, Y96W
notes: Murine monoclonal antibody from hybridoma CNCM I-4894; also called m816C12; I-4894
B11: 810D12 (antibody, V domains shown)
VH: EVQLQQSGPELVKPGASVKMSCKASGHTFTSYMLHWVKQKPGQGLEWLGFINPYNDVTKYNENFKGKATLTSDKSSSTAYMELNSLTSEDSAVYFCVTTAYYGNGRYFDVWGAGTTVTVSS
VL: DIQMTQTTSSLSASLGDRVTISCRASQDITNYLTWYQQKPDGTVKVLIYYTSRLYSGVPSRFSGSGSGSDYSLTINNLEQEDIATYFCQQGYSLPWTFGGGTKLEIK
notes: Murine monoclonal antibody from hybridoma CNCM I-4893; also called m810D12; I-4893

The binders below were run against T1, human IGF-1R, native, on cells (MCF-7, hIGF-1R transfected cells, tumor sections, primary normal cells) (human, UniProt P08069 31-1367) (assay: cell-based or functional assay).

Row | Binder | decrease of IGF1-induced phosphorylation of hIGF-1R (MCF-7 cells) [%] | phosphorylation of hIGF-1R, % of phosphorylation induced by IGF-1 (MCF-7 cells, 10 µg/ml) [%]
1 | B1 | 80 | 
2 | B2 |  | < 10
3 | B3 | 80 | 
4 | B4 |  | < 10
5 | B5 | 80 | 
6 | B6 | 80 | 
7 | B7 |  | < 10
8 | B8 | 80 | 
9 | B9 |  | < 10

These binders were tested against T2, recombinant human Insulin Receptor protein (R&D Systems, Cat 1544-IR/CF) (human, UniProt P06213-2 28-944) (assay: direct ELISA, coated rhIR).
T2 construct: Bought protein coated on ELISA plates; also called rhIR; rh Insulin R
T2 sequence (P06213 other isoform, or with tags, fused parts or gaps limits assumed): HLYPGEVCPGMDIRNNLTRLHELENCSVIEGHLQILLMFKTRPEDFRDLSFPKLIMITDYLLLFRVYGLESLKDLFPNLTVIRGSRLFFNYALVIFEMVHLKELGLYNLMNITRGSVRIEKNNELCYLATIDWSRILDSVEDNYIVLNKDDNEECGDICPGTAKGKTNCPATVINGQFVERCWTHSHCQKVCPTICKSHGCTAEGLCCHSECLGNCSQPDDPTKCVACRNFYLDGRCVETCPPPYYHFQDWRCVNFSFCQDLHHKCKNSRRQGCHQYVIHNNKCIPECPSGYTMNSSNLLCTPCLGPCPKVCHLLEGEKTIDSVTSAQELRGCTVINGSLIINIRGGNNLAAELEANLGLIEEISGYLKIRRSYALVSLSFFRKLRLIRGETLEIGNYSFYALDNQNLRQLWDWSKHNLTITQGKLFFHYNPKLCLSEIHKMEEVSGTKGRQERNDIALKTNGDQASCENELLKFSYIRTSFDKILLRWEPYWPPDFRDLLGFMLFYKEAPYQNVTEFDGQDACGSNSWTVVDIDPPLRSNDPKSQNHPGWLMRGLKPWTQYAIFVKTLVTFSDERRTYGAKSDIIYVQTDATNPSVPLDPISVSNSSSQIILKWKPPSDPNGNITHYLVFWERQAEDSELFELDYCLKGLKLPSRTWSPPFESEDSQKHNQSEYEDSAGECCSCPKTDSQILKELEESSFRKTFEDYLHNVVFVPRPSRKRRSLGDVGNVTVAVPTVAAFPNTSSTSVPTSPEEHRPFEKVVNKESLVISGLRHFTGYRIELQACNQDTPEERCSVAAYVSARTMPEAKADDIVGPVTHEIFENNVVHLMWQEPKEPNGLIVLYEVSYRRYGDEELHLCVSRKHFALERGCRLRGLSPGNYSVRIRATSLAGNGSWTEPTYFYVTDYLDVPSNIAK
Procedure: In all direct ELISAs, proteins of interest were immobilized (1 μg/ml) to the bottom of each well. After saturation, hybridoma supernatants were added to the wells. After a 1-hour incubation period and a washing step, a solution of goat anti-mouse IgG—HRP labelled polyclonal antibody was used for detection, prior to the addition of the TMB substrate. The reaction was stopped with a 1M H₂SO₄ solution before reading the OD with a spectrophotometer at a 450 nm wavelength.

Row | Binder | binding result
10 | B10 | no binding (tested: 5 µg/ml)
11 | B11 | no binding (tested: 5 µg/ml)

Target: T1, human IGF-1R, native, on cells (MCF-7, …)
Assay: cell-based or functional assay
Remark: another data set of the same source

Row | Binder | MFI 37°C (MCF7 internalisation assay) [MFI]
12 | B5 | 111
13 | B6 | 94
14 | B8 | 115

Target: T1, human IGF-1R, native, on cells (MCF-7, …)
Assay: cell-based or functional assay
Remark: another data set of the same source

Row | Binder | ΔMFI (MCF-7, 10 µg/ml, 4 h) [MFI]
15 | B2 | 322
16 | B4 | 353
17 | B7 | 403
18 | B9 | 369

The binders below were run against monkey IGF-1R on COS-7 cells (monkey (African green monkey)) (assay: cell-based or functional assay).

Row | Binder | % internalisation (monkey IGF-1R) [%] | ΔMFI (monkey IGF-1R internalization) [MFI]
19 | B1 | 73 | 83
20 | B2 | 75 | 98
21 | B3 | 71 | 80
22 | B4 | 74 | 102
23 | B5 | 71 | 76
24 | B6 | 74 | 53
25 | B7 | 72 | 98
26 | B8 | 74 | 84
27 | B9 | 73 | 101

Target: T1, human IGF-1R, native, on cells (MCF-7, …)
Assay: cell-based or functional assay
Remark: another data set of the same source

Row | Binder | % internalization (MCF-7, 10 µg/ml, 4 h) [%] | ΔMFI (MCF-7, 10 µg/ml, 4 h) [MFI]
28 | B6 | 88 | 294

The binders below were run against T3, soluble recombinant human IGF-1R hetero-tetramer with C-terminal 10-His tag (R&D Systems 305-GR-50) (human, UniProt P08069 31-736; P08069 741-932) (assay: SPR Biacore X100, His-captured soluble h-IGF-1R (about 600 RU), mean of 4 experiments).
T3 construct: domain: alpha chain;domain: extracellular domain of the beta chain; Captured on an anti-His antibody chip; also called recombinant soluble human-IGF-1R; h-IGF-1R
Procedure: The dissociation constants (KD) of the binding of the antibodies on a recombinant soluble human-IGF-1R were defined by the ratio between the dissociation rate (koff) and the association rate (kₒₙ). The kinetic experiments were run on a Biacore X100 device using a CM5 sensor chip activated by a mouse anti-Tag His monoclobnal antibody. Around 12000 RU of antibodies are chemically grafted on the carboxymethyldextan matrix using the amine kit chemistry.
The experiments were carried out at 25° C. with a flow rate of 30 μl/min using the HBS-EP+ buffer (GE Healthcare) as the running and sample dilution buffer.
The single cycle kinetic scheme was used to define the kinetic parameters of the binding of the anti-IGF-1R antibodies on a soluble recombinant human IGF-1R captured by its two C-terminal 10 Histidine-tag. [0637] 1—A solution of a soluble recombinant version of the human IGF-1R hetero-tetramere: 2a chains and the extracellular domains of 2β chains expressed with an additional C-terminal 10-His tag (R&D Systems catalogue number 305-GR-50) was injected during one minute on the second flowcell at a concentration of 10 μg/ml. […] [0638] 2—After the capture phase, either the running buffer was injected 5 times (90 s each injection) or a growing range of 5 concentrations of one of the six antibodies was injected (90 s each injection) on both flowcells. At the end of the fifth injection the running buffer was passed during 5 minutes in order to define the dissociation rate. [0639] 3—The surface was then generated with an injection of a 10 mM Glycine, HCl pH 1.5 buffer during 45 s.

Row | Binder | Kd [nM]
29 | B2 | ~0.03
30 | B4 | ~0.03
31 | B7 | ~0.03
32 | B9 | ~0.03
